Results as given in patent US8114412B2, “T. cruzi-derived neurotrophic agents and methods of use therefor” (priority 1999, dated 2012).

Tests used:
[1] = test system: PC12 cells; experiment: Reversal of TS-induced neuroprotection by PI-3 kinase inhibitors in PC12 cells; type: cell-based, rat; conditions: RPMI+CNTF 50 ng/ml; similar to RPMI alone
Experimental: (§1) Protection against apoptosis of PC12 cells in serum-free medium containing a test agent (agent N)(e.g., protection induced by TS, TS fragments, NGF or other growth factors), was calculated by the formula: 100%-[(apoptosis(%) of cells kept in RPMI containing test agent N÷apoptosis (%) of cells kept in RPMI)×100%]. Testing the effect of wortmannin (Sigma) and LY294002 (Sigma) in inhibiting the neuroprotection of TS was performed following the protocol described by others (Yao and Cooper, Science, 267:2003-2006 (1995); D'Mello et al., J. Neurosci 17:1548-1560 (1997)). In brief, PC12 cells were switched from growth medium to RPMI without and with TS or various other growth factors. After 24 hr, wortmannin and LY294002 were added to the cultures. After another 24 hrs, cells were examined for apoptosis by the DAPI assay, as above.

[2] = test system: Bcl-2 mRNA in PC12 cells; experiment: RT-PCR of Bcl-2 gene transcripts in PC12 cells; type: cell-based, rat; conditions: TS 2.5 ng/ml, CNTF 50 ng/ml, alone or combined, 17 hours
Experimental: Total RNA was extracted from PC12 cells by the acid guanidinum isothiocyanate method (Chomchinski, P., et al., Biotechniques 15: 532-535 (1993)) using TRI-reagent (Molecular Research Center, Inc.). cDNA synthesis was performed according to the instruction of the manufacturer (Gibco-BRL). Reverse transcription reactions were carried out for 50 minutes at 42° C. and were heated to 70° C. for 15 minutes to terminate the reaction using a MiniCycler (MJ Research). Samples were cooled to 4° C. and stored at −20° C. until use.
PCR reactions were performed in 50 μl containing 1.5 μl of template DNA (corresponding to cDNA synthesized from 100 ng of total RNA), 1×PCR buffer, 100 μM of deoxynucleotides, 2.5 mM MgCl2, 10 mM DTT, 10 pM of Bcl-2 primers, and 2 U of Taq DNA polymerase (Gibco-BRL). The synthetic DNA primers for the rat Bcl-2 were: 5′-[…]-3′ (SEQ ID NO:8) and 5′-[…]-3′(SEQ ID NO:9) to give a PCR product of 566 bp. The sequences for synthetic GAPDH DNA primers (Wong, H., et al., Anal. Biochem. 223: 251-258 (1994)) were: 5′-[…]-3′ (SEQ ID NO:10) and 5′-[…]-3′ (SEQ ID NO:11) giving a PCR produce of 306 base pairs. Amplifications were carried out in MiniCycler (MJ Research) using following conditions: 98° C. for 5 minutes (initial heat denaturation), 3 cycles of 94° C. for 1 minute, 63° C. for 1 minute, 72° C. for 1.5 minutes; 3 cycles of 94° C. for 1 minutes, 60° C. for 1 minute, 72° C. for 1.5 minutes, followed by 72° C. for 10 minutes. Primers for GAPDH (10 pM) were added at cycle 7 by the “primer-dropping” method. Aliquots of PCR reaction products were separated by electrophoresis in 2% agarose gels (Ultrapure, Gibco-BRL), containing 0.2 μg/ml ethidium bromide. Gels were analyzed by computerized densitometric scanning using Gel doc 1000 (Bio Rad) and Molecular Analyst Software, version 2.1.

[3] = test system: PC12 cells; experiment: Trophic factor withdrawal-induced apoptosis of PC12 cells (DAPI/TUNEL); type: cell-based, rat; conditions: serum-free RPMI-1640/0.2% BSA, 17 hours, DAPI or TUNEL
From the text: PC12 cells were obtained from ATCC (Manassas, Va. (Accession No. CRL-1721)) and cultured on collagen-coated dishes in RPMI 1640 supplemented with 10% horse serum and 5% fetal bovine serum (Greene, L. A. and Tishler, A. S., Proc. Natl. Acad. Sci. USA, 73: 2424-2428 (1976)). For differentiation and survival experiments, cells were washed three times in serum-free RPMI/0.2% BSA, plated in the same medium in collagen-coated plastic dishes at 2×10^5/ml, without and with growth factors, TS, recombinant proteins, synthetic peptides, for the time and concentrations indicated in the Figures.
Cell staining with 4,6-diamino-2-phenylindole (DAPI). Cells were fixed with 4% formaldehyde in PBS for 5 minutes, washed with PBS, stained with 10 μg/ml DAPI (Sigma) for 2 minutes, washed with PBS, and visualized under UV light using a fluorescent microscope. About 300-400 cells were examined under the microscope to determine the percentage of apoptotic cells.
Cell DNA nick end labeling (TUNEL) (Gavrieli, Y., et al., J. Cell. Biol. 119: 493-501 (1992)) assay was performed using a kit purchased from Boehringer Mannheim as described by the manufacturer.
as §1

[4] = Martin et al. 1996; cited from earlier work
[5] = Trans-sialidase assay; type: biochemical
Experimental: The trans-sialidase assay was performed as described (Scudder et al., J. Biol. Chem. 268:9886-9891 (1993)) with slight modifications. Various amounts of intact enzyme or enzyme fragments were added to 50 mM PBS, Ph 7.2, containing 15% fetal calf serum and […] of [^14C]N-acetyllactosamine (4×10^5 dpm), 50 μg BSA and 0.02% NaN3 in a volume of 60 μl. After incubation for a predetermined amount of time at room temperature, the reaction mixture was diluted to 1.0 ml with distilled water and applied to a column containing 1.0 ml Q-Sepharose equilibrated with water. Sialylated product was eluted with 1 M NaCi and quantified by scintillation counting.
TS enzymatic activity was measured by the sialylation of the acceptor ^14C-labeled N-acetyllactosamine on anion exchange resins (Scudder, P. et. al., J. Biol. Chem. 268:9886-9891 (1993)). Recombinant TSA-1, was expressed on insect sf9 cells and purified from serum-free medium by ion exchange chromatography (monoQ) and preparative SDS-PAGE (Wrightsman, R. A. et al., J. Immunol., 153:3148-3154 (1994).

[6] = test system: peripheral blood mononuclear cells (PBMC); experiment: IL-6 secretion by PBMC (ELISA); type: cell-based, human; design: IL-6 secretion by PBMC: dose or concentration left out as unconfirmed; conditions: 24 hrs culture
Experimental: (§2) Primary cultures of human intestinal microvascular endothelial cells (HIMEC) isolated from normal jejunal mucosa/submucosal tissue were prepared as described (Strong et al., Gastroenterology 114: 1244-1256 (1998)). The HIMEC were cultured in fibronectin-coated plasticware in MCDB medium (Sigma) supplemented with 20% FBS, 90 μg/ml heparin and 50 μg/ml endothelial cell growth factor (Sigma). T-24 cells (ATCC Accession No. HTB-4) were cultured in M199 medium supplemented with 10% FBS. PBMC were purified by Ficoll-Paque gradient as described (Current Protocols in Immunology, pp 7.1.1-7.1.2). Vero cells (ATCC Accession No. CCL-81) were grown in RPMI medium with 5% Nu serum and infected with the Silvio X-10/4 of T. cruzi as described previously (Chuenkova et al., J. Exp. Med. 181: 1693-1703, (1995)).
(§3) Endothelial cells and T-24 cells were plated on 24-well plates at a density of 1×10^3 cells/well, while peripheral blood mononuclear cells (PBMC) were plated in the similar wells at 1×10^6/well. Triplicat cultures of cells were incubated test agents for a predetermined amount of time. […] Cytokines and chemokines released in the culture supernatants were measured by ELISA assay following the instructions of the manufacturer (Endogen). The cytokines tested were IL-1β, IL-4, IL-8, IL-10, IL-12, IFN-γ, TNF-α, and the chemokines RANTES and MCP-1. Negative controls were cells incubated in medium containing polymixin B at 10 μg/ml, and positive controls were cells incubated with bacterial LPS at the low ng/ml range (for PBMC or HIMEC) or in the μg/ml range for carcinoma T-24 cells. In some experiments, IL-1β, or TNFα were used as positive control for cytokine release.
TR peptides (Table 2) were synthesized at the Tufts Synthesis Facility (Boston, Mass.). Each peptide was purified by HPLC, and the number of amino acids and molecular weight of each peptide verified by mass spectrometry. Peptides were dissolved in growth medium (10% FCS in RPMI) and added at various concentrations to 1×10^6 PBMC/well in 24-well plates. After 24 hrs, IL-6 was assayed by ELISA in the conditioned supernatants.

[7] = test system: human bladder carcinoma T-24 cell line; experiment: IL-6 secretion by T-24 carcinoma cells (ELISA); type: cell-based; conditions: 24 hours culture
Experimental: as §2, §3

B1: CNTF: human ciliary neurotrophic factor; recombinant human and rat CNTF (protein, UniProt P26441 1-200, looked up)
Ciliary neurotrophic factor: MAFTEHSPLTPHRRDLCSRSIWLARKIRSDLTALTESYVKHQGLNKNINLDSADGMPVASTDQWSELTEAERLQENLQAYRTFHVLLARLLEDQQVHFTPTEGDFHQAIHTLLLQVAAFAYQIEELMILLEYKIPRNEADGMPINVGDGGLFEKKLWGLKVLQELSQWTVRSIHDLRFISSHQTGIPARGSHYIANNKKM
viability of PC12 cells [1]: ~33% | bcl-2 gene expression in PC12 cells [2]: did not induce bcl-2 gene expression individually | protection of PC12 cells from apoptosis induced by trophic factor withdrawal [3]: little, if any, protection | undesirable side effects of administration [4]: muscle atrophy, cachexia and anorexia

B2: TS-154: recombinant catalytically active trans-sialidase construct from clone 154 with 5 tandem repeat units (protein, listed as Trypanosoma cruzi)
chain: KKKQVFSKIFYSEDEGKTWKFGEGRSDFGCSEPVALEWEGKLIINTRVDYRRRLVYESSDMGNSWVEAVGTLSRVWGPSPKSNQPGSQSSFTAVTIEGMRVMLFTHPLNFKGRWLRDRLNLWLTDNQRIYNVGQVSIGDENSAYSSVLYKDDKLYCLHEINSNEVYSLVFARLVGELRIIKSVLQSWKNWDSHLSSICTP
trans-sialidase enzymatic activity [5]: enzymatically-active | IL-6 secretion by PBMC [6]: as powerful as enzymatically-inactive TS-H32 in stimulating IL-6 secretion | IL-6 secretion by T-24 cells [7]: as powerful as enzymatically-inactive TS-H32 in stimulating IL-6 secretion
